Test results published in PMC4364671, “Identification and Characterization of Bifunctional Proline Racemase/Hydroxyproline Epimerase from Archaea: Discrimination of Substrates and Molecular Evolution” (PLoS ONE, 2015).

Key:
[1] = target: Hydroxyproline 2-epimerase from Azospirillum brasilense (Azospirillum brasilense ATCC 29145); test: SEC; analytic gel filtration by HPLC on TSKgel G3000SWXL, 50 mM Tris-HCl pH 8.0, 1 ml/min, high molecular weight calibration kit; data not shown
[2] = target: ProR-like protein from Ferroplasma acidiphilum (Ferroplasma acidiphilum DSM 12658); test: as above
[3] = target: T1, TlProR (bifunctional proline racemase/hydroxyproline epimerase) (Thermococcus litoralis, UniProt H3ZMH5); test: HPLC racemase assay with L-proline, chiral separation; type: biochemical
T1 construct: gene OCC_00372
T1 sequence (H3ZMH5 1-331): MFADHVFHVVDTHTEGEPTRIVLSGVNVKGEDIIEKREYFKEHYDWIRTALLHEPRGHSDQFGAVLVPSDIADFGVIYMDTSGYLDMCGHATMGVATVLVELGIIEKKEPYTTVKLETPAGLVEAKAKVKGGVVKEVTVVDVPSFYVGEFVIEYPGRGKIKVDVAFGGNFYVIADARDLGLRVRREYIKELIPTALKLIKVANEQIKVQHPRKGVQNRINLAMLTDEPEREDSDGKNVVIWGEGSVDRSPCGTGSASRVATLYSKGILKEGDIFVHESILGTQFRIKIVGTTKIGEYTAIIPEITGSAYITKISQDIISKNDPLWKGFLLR

[4] = target: ProR-like protein from Haloarcula japonica (Haloarcula japonica DSM 6131); test: SEC; analytic gel filtration by HPLC on TSKgel G3000SWXL, 50 mM Tris-HCl pH 8.0, 1 ml/min, high molecular weight calibration kit; data not shown
[5] = target: ProR-like protein (OCC_00372) from Thermococcus litoralis, bifunctional proline racemase/hydroxyproline epimerase (Thermococcus litoralis DSM 5473); test: as above
HjProR = target: T2, HjProR (Haloarcula japonica, UniProt M0LMI3); test: chiral HPLC of NBD-F derivatives, racemase activity; type: biochemical
T2 construct: gene C444_02196; full length, N-terminal His6 tag kept (pETDuet-1), E. coli; dimer; possible partial proteolysis
T2 sequence (M0LMI3 entry or part of it): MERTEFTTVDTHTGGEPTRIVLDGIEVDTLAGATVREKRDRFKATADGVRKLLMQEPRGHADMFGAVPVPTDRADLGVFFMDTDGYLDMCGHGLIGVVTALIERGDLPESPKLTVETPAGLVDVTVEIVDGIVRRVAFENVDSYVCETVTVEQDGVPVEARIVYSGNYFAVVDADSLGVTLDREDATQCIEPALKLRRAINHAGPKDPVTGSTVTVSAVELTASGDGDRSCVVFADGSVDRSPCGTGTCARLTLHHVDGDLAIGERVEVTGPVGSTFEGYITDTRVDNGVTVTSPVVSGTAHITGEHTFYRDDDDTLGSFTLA

purified protein [6] = substrate: O=C(O)[C@H]1NCC[C@@H]1O; test: purified protein
purified protein [7] = substrate: O=C(O)[C@@H]1CCCN1; test: purified protein
purified protein [8] = substrate: O=C(O)[C@@H]1C[C@@H](O)CN1; test: purified protein
purified protein [9] = substrate: O=C(O)[C@H]1CCCN1; test: purified protein
purified protein [10] = substrate: O=C(O)[C@H]1C[C@@H](O)CN1; test: purified protein
[11] = target: the molecule itself; test: SEC; analytic gel filtration by HPLC on TSKgel G3000SWXL, 50 mM Tris-HCl pH 8.0, 1 ml/min, high molecular weight calibration kit; data not shown

Hydroxyproline 2-epimerase from Azospirillum brasilense (enzyme)
stoichiometry N [1]: 2

ProR-like protein from Ferroplasma acidiphilum (enzyme)
stoichiometry N [2]: 2

O=C(O)c1ccc[nH]1 [PYC, pyrrole-2-carboxylate]
IC50 [3]: 217 µM

ProR-like protein from Haloarcula japonica (enzyme)
stoichiometry N [4]: 2

ProR-like protein (OCC_00372) from Thermococcus litoralis, bifunctional proline racemase/hydroxyproline epimerase (enzyme)
stoichiometry N [5]: 2

O=C(O)c1ccc[nH]1 [pyrrole-2-carboxylate]
IC50 (HjProR): 295 µM

B1: TlProR (bifunctional proline racemase/hydroxyproline epimerase) (Thermococcus litoralis DSM 5473) (protein)
chain: T1 sequence (H3ZMH5 1-331)
Km (purified protein [6]): 502 µM | kcat (purified protein [6]): 3.6 s⁻¹ | kcat/Km (purified protein [6]): 7170 M⁻¹ s⁻¹ | Km (purified protein [7]): 1210 µM | kcat (purified protein [7]): 2.78 s⁻¹ | kcat/Km (purified protein [7]): 2300 M⁻¹ s⁻¹ | Km (purified protein [8]): 6080 µM | kcat (purified protein [8]): 12.1 s⁻¹ | kcat/Km (purified protein [8]): 2030 M⁻¹ s⁻¹ | Km (purified protein [9]): 91.9 µM | kcat (purified protein [9]): 2.22 s⁻¹ | kcat/Km (purified protein [9]): 26200 M⁻¹ s⁻¹ | Km (purified protein [10]): 6650 µM | kcat (purified protein [10]): 3.83 s⁻¹ | kcat/Km (purified protein [10]): 580 M⁻¹ s⁻¹

B2: Proline racemase from Clostridium difficile (enzyme, Clostridium difficile 630, UniProt Q17ZY4 1-335, looked up)
chain: MKFSRSIQAIDSHTAGEATRIVVGGIPNIKGNSMPEKKEYLEENLDYLRTAIMLEPRGHNDMFGSVMTQPCCPDADFGIIFMDGGGYLNMCGHGTIGAMTAAIETGVVPAVEPVTHVVMEAPAGIIRGDVTVVDGKAKEVSFLNVPAFLYKEGVEVDLPGVGTVKFDISFGGSFFAIIHASQLGLKIEPQNAGKLTELAMKLRDIINEKIEIQHPTLAHIKTVDLVEIYDEPTHPEATYKNVVIFGQGQVDRSPCGTGTSAKLATLHAKGELKVGEKFVYESILGTLFKGEIVEETKVADFNAVVPKITGSAYITGFNHFVIDEEDPLKHGFILK
notes: Proline racemase CdProR of Clostridium difficile 630, gene CD630_32370 amplified from genomic DNA into pETDuet-1; calculated mass with His6-tag 37.7 kDa; also called CdProR; source: E. coli BL21-CodonPlus(DE3)-RIL, purified (Ni-NTA); not shown: His6, N-terminal, kept
stoichiometry N [11]: 2
